According to patent US20260167699A1 (Chugai, published 2026):

T1: FcγRIIa(R) extracellular domain, C-terminal His tag (human, UniProt P12318 34-217)
T1 construct: extracellular domain; Allotype R131; also called 2aR
T1 sequence: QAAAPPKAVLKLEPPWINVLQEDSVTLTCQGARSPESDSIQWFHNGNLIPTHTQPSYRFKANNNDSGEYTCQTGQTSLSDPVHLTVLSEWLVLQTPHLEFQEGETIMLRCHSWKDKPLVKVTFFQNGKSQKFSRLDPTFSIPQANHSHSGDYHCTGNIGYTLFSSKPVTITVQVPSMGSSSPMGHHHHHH

T2: FcγRIIa(H) extracellular domain, C-terminal His tag (human, UniProt P12318 34-217)
T2 construct: extracellular domain; Allotype H131; also called 2aH
T2 sequence: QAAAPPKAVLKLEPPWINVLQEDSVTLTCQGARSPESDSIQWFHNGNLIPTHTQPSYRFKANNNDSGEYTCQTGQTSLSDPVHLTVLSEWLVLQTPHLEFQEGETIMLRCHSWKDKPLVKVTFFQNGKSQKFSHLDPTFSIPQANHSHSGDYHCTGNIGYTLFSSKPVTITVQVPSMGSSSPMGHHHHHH

T3: FcγRIIb extracellular domain, C-terminal His tag (human, UniProt P31994 43-217)
T3 construct: extracellular domain; also called 2b
T3 sequence: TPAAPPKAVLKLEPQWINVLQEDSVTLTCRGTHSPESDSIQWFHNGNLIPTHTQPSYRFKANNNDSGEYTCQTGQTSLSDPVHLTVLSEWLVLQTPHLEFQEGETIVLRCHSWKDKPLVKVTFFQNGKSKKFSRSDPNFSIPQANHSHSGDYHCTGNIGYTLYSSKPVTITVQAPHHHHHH


What was measured:
Assay in all cases: SPR (Biacore); binding relative to GpH7-A5/GpH7-B3/GpL16-k0 x100;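 further: antibodies captured on a chip surface, soluble FcγR flowed over in HBS-EP+ running buffer at 25 °C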
[1] = target: T4, FcγRIa extracellular domain, C-terminal His tag (human, UniProt P12314 16-292)
T4 construct: extracellular domain; also called 1a

[2] = target: T1, FcγRIIa(R) extracellular domain, …
[3] = target: T2, FcγRIIa(H) extracellular domain, …
[4] = target: T3, FcγRIIb extracellular domain, …
[5] = target: T5, FcγRIIIa extracellular domain, C-terminal His tag (human, UniProt P08637 17-208)
T5 construct: extracellular domain; also called 3a
T5 sequence (P08637 other isoform, or with tags, fused parts or gaps): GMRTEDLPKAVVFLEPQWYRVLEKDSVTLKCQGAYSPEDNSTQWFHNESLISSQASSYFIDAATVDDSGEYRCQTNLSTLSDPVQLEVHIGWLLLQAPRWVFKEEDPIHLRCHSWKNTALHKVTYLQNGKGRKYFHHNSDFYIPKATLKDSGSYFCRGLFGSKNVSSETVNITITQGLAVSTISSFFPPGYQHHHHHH

T4 sequence (P12314 other isoform, or with tags, fused parts or gaps): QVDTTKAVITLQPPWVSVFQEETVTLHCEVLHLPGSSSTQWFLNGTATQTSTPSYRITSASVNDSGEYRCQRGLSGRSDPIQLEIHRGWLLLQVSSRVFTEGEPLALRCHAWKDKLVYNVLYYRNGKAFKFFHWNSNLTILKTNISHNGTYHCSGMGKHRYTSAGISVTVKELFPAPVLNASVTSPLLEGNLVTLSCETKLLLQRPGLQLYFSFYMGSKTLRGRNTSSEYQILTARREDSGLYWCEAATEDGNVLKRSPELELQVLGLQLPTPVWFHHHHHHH

Row | Binder | He/Con 1a [1] | He/Con 2aR [2] | He/Con 2aH [3] | He/Con 2b [4] | He/Con 3a [5]
1 | GpH7-A5/GpH7-B3 variant L328_15Y/GpL16-k0 (antibody, human IgG1, kappa, He Ab: anti-glypican 3 IgG1 heterodimer, only the GpH7-B3 chain mutated; position in EU numbering; also called He Ab) heavy 1: not shown heavy 2: not shown light: DIVMTQSPLSLPVTPGEPASISCQASESLVHSNRNTYLHWYLQKPGQSPQLLIYKVSNRFSGVPDRFSGSGSGTDFTLKISRVEAEDVGVYYCSQNTHVPPTFGQGTKVEIERTVAAPSVFIFPPSDEQLKSGTASVVCLLNNFYPREAKVQWKVDNALQSGNSQESVTEQDSKDSTYSLSSTLTLSKADYEKHKVYACEVTHQGLSSPVTKSFNRGEC | 104% | 174% | 106% | 240% | 70.2%
2 | GpH7-A5/GpH7-B3 variant P331_04F/GpL16-k0 (antibody, human IgG1, kappa, He Ab: anti-glypican 3 IgG1 heterodimer, only the GpH7-B3 chain mutated; position in EU numbering; also called He Ab) heavy 1: not shown heavy 2: not shown light: DIVMTQSPLSLPVTPGEPASISCQASESLVHSNRNTYLHWYLQKPGQSPQLLIYKVSNRFSGVPDRFSGSGSGTDFTLKISRVEAEDVGVYYCSQNTHVPPTFGQGTKVEIERTVAAPSVFIFPPSDEQLKSGTASVVCLLNNFYPREAKVQWKVDNALQSGNSQESVTEQDSKDSTYSLSSTLTLSKADYEKHKVYACEVTHQGLSSPVTKSFNRGEC | 108% | 110% | 87.7% | 122% | 70.7%
3 | GpH7-A5/GpH7-B3 variant P331_02A/GpL16-k0 (antibody, human IgG1, kappa, He Ab: anti-glypican 3 IgG1 heterodimer, only the GpH7-B3 chain mutated; position in EU numbering; also called He Ab) heavy 1: not shown heavy 2: not shown light: DIVMTQSPLSLPVTPGEPASISCQASESLVHSNRNTYLHWYLQKPGQSPQLLIYKVSNRFSGVPDRFSGSGSGTDFTLKISRVEAEDVGVYYCSQNTHVPPTFGQGTKVEIERTVAAPSVFIFPPSDEQLKSGTASVVCLLNNFYPREAKVQWKVDNALQSGNSQESVTEQDSKDSTYSLSSTLTLSKADYEKHKVYACEVTHQGLSSPVTKSFNRGEC | 105% | 105% | 93.9% | 110% | 82.5%
4 | GpH7-A5/GpH7-B3 variant N325_16H/GpL16-k0 (antibody, human IgG1, kappa, He Ab: anti-glypican 3 IgG1 heterodimer, only the GpH7-B3 chain mutated; position in EU numbering; also called He Ab) heavy 1: not shown heavy 2: not shown light: DIVMTQSPLSLPVTPGEPASISCQASESLVHSNRNTYLHWYLQKPGQSPQLLIYKVSNRFSGVPDRFSGSGSGTDFTLKISRVEAEDVGVYYCSQNTHVPPTFGQGTKVEIERTVAAPSVFIFPPSDEQLKSGTASVVCLLNNFYPREAKVQWKVDNALQSGNSQESVTEQDSKDSTYSLSSTLTLSKADYEKHKVYACEVTHQGLSSPVTKSFNRGEC | 99.9% | 85.3% | 50% | 78.5% | 68%
5 | GpH7-A5/GpH7-B3 variant N325_13S/GpL16-k0 (antibody, human IgG1, kappa, He Ab: anti-glypican 3 IgG1 heterodimer, only the GpH7-B3 chain mutated; position in EU numbering; also called He Ab) heavy 1: not shown heavy 2: not shown light: DIVMTQSPLSLPVTPGEPASISCQASESLVHSNRNTYLHWYLQKPGQSPQLLIYKVSNRFSGVPDRFSGSGSGTDFTLKISRVEAEDVGVYYCSQNTHVPPTFGQGTKVEIERTVAAPSVFIFPPSDEQLKSGTASVVCLLNNFYPREAKVQWKVDNALQSGNSQESVTEQDSKDSTYSLSSTLTLSKADYEKHKVYACEVTHQGLSSPVTKSFNRGEC | 102% | 137% | 83% | 198% | 71.9%
6 | GpH7-A5/GpH7-B3 variant P331_06M/GpL16-k0 (antibody, human IgG1, kappa, He Ab: anti-glypican 3 IgG1 heterodimer, only the GpH7-B3 chain mutated; position in EU numbering; also called He Ab) heavy 1: not shown heavy 2: not shown light: DIVMTQSPLSLPVTPGEPASISCQASESLVHSNRNTYLHWYLQKPGQSPQLLIYKVSNRFSGVPDRFSGSGSGTDFTLKISRVEAEDVGVYYCSQNTHVPPTFGQGTKVEIERTVAAPSVFIFPPSDEQLKSGTASVVCLLNNFYPREAKVQWKVDNALQSGNSQESVTEQDSKDSTYSLSSTLTLSKADYEKHKVYACEVTHQGLSSPVTKSFNRGEC | 106% | 105% | 88.1% | 113% | 68.4%
7 | GpH7-A5/GpH7-B3 variant L328_16H/GpL16-k0 (antibody, human IgG1, kappa, He Ab: anti-glypican 3 IgG1 heterodimer, only the GpH7-B3 chain mutated; position in EU numbering; also called He Ab) heavy 1: not shown heavy 2: not shown light: DIVMTQSPLSLPVTPGEPASISCQASESLVHSNRNTYLHWYLQKPGQSPQLLIYKVSNRFSGVPDRFSGSGSGTDFTLKISRVEAEDVGVYYCSQNTHVPPTFGQGTKVEIERTVAAPSVFIFPPSDEQLKSGTASVVCLLNNFYPREAKVQWKVDNALQSGNSQESVTEQDSKDSTYSLSSTLTLSKADYEKHKVYACEVTHQGLSSPVTKSFNRGEC | 98.5% | 106% | 84.5% | 100% | 55.9%
8 | GpH7-A5/GpH7-B3 variant P331_03V/GpL16-k0 (antibody, human IgG1, kappa, He Ab: anti-glypican 3 IgG1 heterodimer, only the GpH7-B3 chain mutated; position in EU numbering; also called He Ab) heavy 1: not shown heavy 2: not shown light: DIVMTQSPLSLPVTPGEPASISCQASESLVHSNRNTYLHWYLQKPGQSPQLLIYKVSNRFSGVPDRFSGSGSGTDFTLKISRVEAEDVGVYYCSQNTHVPPTFGQGTKVEIERTVAAPSVFIFPPSDEQLKSGTASVVCLLNNFYPREAKVQWKVDNALQSGNSQESVTEQDSKDSTYSLSSTLTLSKADYEKHKVYACEVTHQGLSSPVTKSFNRGEC | 104% | 114% | 85.4% | 132% | 66.9%
9 | GpH7-A5/GpH7-B3 variant L328_19Q/GpL16-k0 (antibody, human IgG1, kappa, He Ab: anti-glypican 3 IgG1 heterodimer, only the GpH7-B3 chain mutated; position in EU numbering; also called He Ab) heavy 1: not shown heavy 2: not shown light: DIVMTQSPLSLPVTPGEPASISCQASESLVHSNRNTYLHWYLQKPGQSPQLLIYKVSNRFSGVPDRFSGSGSGTDFTLKISRVEAEDVGVYYCSQNTHVPPTFGQGTKVEIERTVAAPSVFIFPPSDEQLKSGTASVVCLLNNFYPREAKVQWKVDNALQSGNSQESVTEQDSKDSTYSLSSTLTLSKADYEKHKVYACEVTHQGLSSPVTKSFNRGEC | 104% | 115% | 103% | 131% | 83.4%
10 | GpH7-A5/GpH7-B3 variant P329_09D/GpL16-k0 (antibody, human IgG1, kappa, He Ab: anti-glypican 3 IgG1 heterodimer, only the GpH7-B3 chain mutated; position in EU numbering; also called He Ab) heavy 1: not shown heavy 2: not shown light: DIVMTQSPLSLPVTPGEPASISCQASESLVHSNRNTYLHWYLQKPGQSPQLLIYKVSNRFSGVPDRFSGSGSGTDFTLKISRVEAEDVGVYYCSQNTHVPPTFGQGTKVEIERTVAAPSVFIFPPSDEQLKSGTASVVCLLNNFYPREAKVQWKVDNALQSGNSQESVTEQDSKDSTYSLSSTLTLSKADYEKHKVYACEVTHQGLSSPVTKSFNRGEC | 80.1% | 76% | 57.1% | 60.4% | 52.5%
11 | GpH7-A5/GpH7-B3 variant L328_18N/GpL16-k0 (antibody, human IgG1, kappa, He Ab: anti-glypican 3 IgG1 heterodimer, only the GpH7-B3 chain mutated; position in EU numbering; also called He Ab) heavy 1: not shown heavy 2: not shown light: DIVMTQSPLSLPVTPGEPASISCQASESLVHSNRNTYLHWYLQKPGQSPQLLIYKVSNRFSGVPDRFSGSGSGTDFTLKISRVEAEDVGVYYCSQNTHVPPTFGQGTKVEIERTVAAPSVFIFPPSDEQLKSGTASVVCLLNNFYPREAKVQWKVDNALQSGNSQESVTEQDSKDSTYSLSSTLTLSKADYEKHKVYACEVTHQGLSSPVTKSFNRGEC | 101% | 76.4% | 80.6% | 101% | 51.1%
12 | GpH7-A5/GpH7-B3 variant P329_10E/GpL16-k0 (antibody, human IgG1, kappa, He Ab: anti-glypican 3 IgG1 heterodimer, only the GpH7-B3 chain mutated; position in EU numbering; also called He Ab) heavy 1: not shown heavy 2: not shown light: DIVMTQSPLSLPVTPGEPASISCQASESLVHSNRNTYLHWYLQKPGQSPQLLIYKVSNRFSGVPDRFSGSGSGTDFTLKISRVEAEDVGVYYCSQNTHVPPTFGQGTKVEIERTVAAPSVFIFPPSDEQLKSGTASVVCLLNNFYPREAKVQWKVDNALQSGNSQESVTEQDSKDSTYSLSSTLTLSKADYEKHKVYACEVTHQGLSSPVTKSFNRGEC | 81.4% | 72.7% | 57.6% | 59.5% | 52.7%
13 | GpH7-A5/GpH7-B3 variant N325_09D/GpL16-k0 (antibody, human IgG1, kappa, He Ab: anti-glypican 3 IgG1 heterodimer, only the GpH7-B3 chain mutated; position in EU numbering; also called He Ab) heavy 1: not shown heavy 2: not shown light: DIVMTQSPLSLPVTPGEPASISCQASESLVHSNRNTYLHWYLQKPGQSPQLLIYKVSNRFSGVPDRFSGSGSGTDFTLKISRVEAEDVGVYYCSQNTHVPPTFGQGTKVEIERTVAAPSVFIFPPSDEQLKSGTASVVCLLNNFYPREAKVQWKVDNALQSGNSQESVTEQDSKDSTYSLSSTLTLSKADYEKHKVYACEVTHQGLSSPVTKSFNRGEC | 105% | 111% | 55.3% | 139% | 53%
